Measurements: patent publication US20230406935A1 (F STAR THERAPEUTICS, published 2023)
Positions count from the first letter of the chain named. Where two headings read alike, the source gives them in different places.

Legend:
[1] = molecular target: T1, Human PD-L1 expressed on cells (human, UniProt Q9NZQ7 19-290); assay: cell-based or functional assay
[2] = molecular target: T1, Human PD-L1 expressed on cells; assay: cell-based or functional assay; remark: listed apart in the source
[3] = molecular target: T2, Biotinylated hPD-L1-Fc-Avi (human, UniProt Q9NZQ7 19-238); assay: cell-based RBA, blocking of hPD-L1-Fc-Avi binding to HEK293 hPD-1 cells
Method: (§1) The ability of the Fcabs and mock mAb² to block hPD-1/hPD-L1 and hPD-L1/hCD80 interactions was tested in cell-based Receptor Binding Assays (RBA). […] The mix was incubated for another hour with HEK293 cells overexpressing either hPD-1 or hCD80.

[4] = molecular target: T3, Cynomolgus PD-L1 expressed on HEK 293 cells (cynomolgus, UniProt Q9NZQ7 19-290 (human entry)); assay: flow cytometry, HEK293 cells overexpressing the target, anti-human Fc 488
T3 construct: also called cell-expressed cynomolgus PD-L1
Method: (§2) Cell binding assays were performed by incubating Fcabs or mAb² proteins with either control HEK293 cells or HEK293 cells overexpressing hPD-L1 or cynomolgus PD-L1 cells for 1 hour at 4° C. Fcab/mAb binding was subsequently detected using an anti-human Fc 488 detection antibody. Fluorescent signal intensities were measured using a FACS canto.

[5] = molecular target: T1, Human PD-L1 expressed on cells; assay: as above
Method: as §2

[6] = molecular target: T4, Recombinant human PD-1 with a C-terminal human IgG tag (R&D Systems, 1086-PD) (human, UniProt Q15116 25-167); assay: SPR Biacore, PD-1 coated on the chip, Fcab in flow
T4 construct: also called human PD-1 Fc; biotinylated PD-1 Fc
Text: (§3) The Fcab was then flowed over the chip at a 1000-fold concentration range. […] However, the Fcab did bind to PD-L1.

[7] = molecular target: T2, Biotinylated hPD-L1-Fc-Avi; assay: cell-based RBA, blocking of hPD-L1-Fc-Avi binding to HEK293 hCD80 cells
Method: as §1

[8] = molecular target: T5, Monomeric His-tagged human PD-L1 (Acro biosystems PD1-H5229) (human, UniProt Q9NZQ7 19-238); assay: SPR Biacore, captured on protein A, monomeric PD-L1-his in flow, 1:1 fit
T5 construct: also called hPD-L1-his; PD-L1-his
Method: The monomeric PD-L1-his human antigen was flowed over the chip in titrating concentrations at a high flow rate to minimise mass transport limitations. The KDS were measured using a 1:1 fitting analysis with no refractive index correction and Rₘₐₓ set to local.

[9] = molecular target: T5, Monomeric His-tagged human PD-L1 (Acro …); assay: SPR Biacore T200, Fcab captured on protein A chip, monomeric antigen in flow, 1:1 fit
[10] = molecular target: T6, Monomeric cynomolgus PD-L1 (Acro Biosciences PD1-C52H4) (cynomolgus, UniProt Q9NZQ7 19-238 (human entry)); assay: as above
T6 construct: also called cynomolgus monomeric PD-L1

[11] = molecular target: T7, PD-L2 (R&D systems 1224-PL) (UniProt Q9BQ51 20-219); assay: SPR Biacore, PD-L2 coated on the chip, Fcab in flow
T7 sequence (looked up): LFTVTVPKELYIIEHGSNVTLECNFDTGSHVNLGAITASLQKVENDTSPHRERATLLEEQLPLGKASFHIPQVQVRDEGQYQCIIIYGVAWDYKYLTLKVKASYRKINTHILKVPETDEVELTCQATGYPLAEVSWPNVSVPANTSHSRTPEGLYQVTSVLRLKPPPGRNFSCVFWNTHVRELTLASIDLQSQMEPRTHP
Text: as §3

[12] = molecular target: the molecule itself; assay: analytical ultracentrifugation, self-association of the Fcab (monomer and dimer peaks)
Method: To address this, the molecules were analysed via analytical ultracentrifugation using a Beckman Optima XL-1 instrument.
These domains were then purified using protein A to remove Fc domains, anti-his to remove enzymes and finally subjected to SEC to purify the monomeric fraction.

[13] = molecular target: T1, Human PD-L1 expressed on cells; assay: cell-based or functional assay; remark: listed apart in the source
[14] = molecular target: T5, Monomeric His-tagged human PD-L1 (Acro …); assay: SPR Biacore T200, mAb^2 captured by anti-Fab on CM5, monomeric antigen in flow, 1:1 fit
[15] = molecular target: T6, Monomeric cynomolgus PD-L1 (Acro …); assay: as above
[16] = molecular target: T2, Biotinylated hPD-L1-Fc-Avi; assay: cell-based RBA, blocking of hPD-L1-Fc-Avi binding to HEK293 hCD80 cells; PD-L1 at 50 µg/mL
[17] = molecular target: T2, Biotinylated hPD-L1-Fc-Avi; assay: cell-based RBA (Example 8.3), blocking of hPD-L1-Fc-Avi binding to HEK293 hPD-1 cells
Method: (§4) The ability of the mock mAb² to block hPD-1/hPD-L1 and hPD-L1/hCD80 interactions was tested in cell-based Receptor Blocking Assays (RBA). […] The mix was incubated for another hour with HEK293 cells overexpressing either hPD-1 or hCD80.

[18] = molecular target: T1, Human PD-L1 expressed on cells; assay: cell-based or functional assay; remark: listed apart in the source
[19] = molecular target: T5, Monomeric His-tagged human PD-L1 (Acro …); assay: SPR Biacore T200, mock mAb^2 captured by anti-Fab on CM5, monomeric antigen in flow, 1:1 fit
[20] = molecular target: T6, Monomeric cynomolgus PD-L1 (Acro …); assay: as above
[21] = molecular target: T2, Biotinylated hPD-L1-Fc-Avi; assay: cell-based RBA (Example 8.3), blocking of hPD-L1-Fc-Avi binding to HEK293 hCD80 cells
Method: as §4

[22] = molecular target: T3, Cynomolgus PD-L1 expressed on HEK 293 …; assay: flow cytometry, HEK293 cells overexpressing the target, anti-human Fc 488; remark: listed apart in the source
Method: as §2, with “the mock” for “Fcabs or”, “mAb²” for “mAb² proteins”, “Mock mAb²” for “Fcab/mAb”, “Canto flow cytometer (BD Biosciences).” for “canto.”

[23] = molecular target: T1, Human PD-L1 expressed on cells; assay: as above; remark: listed apart in the source
Method: as §2, with “the mock” for “Fcabs or”, “mAb²” for “mAb² proteins”, “Mock mAb²” for “Fcab/mAb”, “Canto flow cytometer (BD Biosciences).” for “canto.”

[24] = molecular target: T1, Human PD-L1 expressed on cells; assay: cell-based or functional assay; remark: listed apart in the source
[25] = molecular target: T5, Monomeric His-tagged human PD-L1 (Acro …); assay: SPR Biacore T200 as Example 5.1, anti-Fab capture, monomeric hPD-L1-his
Method: Fcab and mAb² binding to human PD-L1 was assessed by both BIAcore and in a cell binding assay. To measure the affinity of the clones to monomeric hPD-L1-his, the mAb² were captured using an anti-Fab antibody coated on a CM5 chip (GE 28-9582-20 AC) and Fcabs were captured using a Protein A chip (GE 29127556) using a Biacore T200 (GE). To minimize mass transport effects, the capture level was minimized to 200RU and a fast flow rate of 75 μl/min was used. […] The analysis of the data was done using the Biacore T200 evaluation software. Curves subtracted against a blank flow cell and a run with no antigen were analysed using a 1:1 fitting model with no bulk analysis and Rmax analysed locally.
The selected CH3 domain sequences were subcloned and expressed in “mock” (MSL109) mAb² format with the LALA mutation in the CH2 domain, as described in Example 4.2.1, for further screening.

T1 sequence (Q9NZQ7 19-290 limits assumed): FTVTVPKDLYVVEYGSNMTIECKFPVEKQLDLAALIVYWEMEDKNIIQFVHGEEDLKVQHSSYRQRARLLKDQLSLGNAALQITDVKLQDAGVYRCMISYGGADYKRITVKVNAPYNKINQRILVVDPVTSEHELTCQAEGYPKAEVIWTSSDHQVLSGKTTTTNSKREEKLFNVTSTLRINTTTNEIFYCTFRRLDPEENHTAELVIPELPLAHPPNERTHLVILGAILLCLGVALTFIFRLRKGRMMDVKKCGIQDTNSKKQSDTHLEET
T3 sequence (Q9NZQ7 other isoform, or with tags, fused parts or gaps limits assumed): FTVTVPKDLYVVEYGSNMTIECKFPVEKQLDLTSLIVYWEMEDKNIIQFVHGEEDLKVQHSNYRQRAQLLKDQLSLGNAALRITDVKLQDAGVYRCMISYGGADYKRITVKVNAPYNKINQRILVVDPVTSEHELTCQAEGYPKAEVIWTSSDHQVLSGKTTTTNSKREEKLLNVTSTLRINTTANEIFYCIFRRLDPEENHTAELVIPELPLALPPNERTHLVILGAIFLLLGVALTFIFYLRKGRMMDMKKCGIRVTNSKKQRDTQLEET
T6 sequence (Q9NZQ7 other isoform, or with tags, fused parts or gaps limits assumed): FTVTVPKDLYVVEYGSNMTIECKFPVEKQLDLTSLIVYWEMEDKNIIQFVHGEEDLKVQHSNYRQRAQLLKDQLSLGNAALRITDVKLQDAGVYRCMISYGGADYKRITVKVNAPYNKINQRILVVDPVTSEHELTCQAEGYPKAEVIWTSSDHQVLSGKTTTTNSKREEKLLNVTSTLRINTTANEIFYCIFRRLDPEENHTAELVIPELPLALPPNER
T5 sequence (Q9NZQ7 19-238 limits assumed): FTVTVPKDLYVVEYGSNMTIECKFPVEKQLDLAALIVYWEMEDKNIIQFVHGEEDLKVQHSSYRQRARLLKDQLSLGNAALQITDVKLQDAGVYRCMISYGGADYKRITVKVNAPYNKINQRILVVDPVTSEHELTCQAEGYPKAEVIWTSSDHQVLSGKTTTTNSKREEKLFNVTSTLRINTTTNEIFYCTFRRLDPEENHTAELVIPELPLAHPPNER
T2 sequence (Q9NZQ7 19-238 limits assumed): as above
T4 sequence (Q15116 25-167 limits assumed): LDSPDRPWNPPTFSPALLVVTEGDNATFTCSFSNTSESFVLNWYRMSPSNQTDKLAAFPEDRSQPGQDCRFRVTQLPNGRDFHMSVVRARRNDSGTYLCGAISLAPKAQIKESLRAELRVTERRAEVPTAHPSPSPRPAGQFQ

B1: Fcab FS17-33-116 with LALA mutation (designed binder)
chain: TCPPCPAPEAAGGPSVFLFPPKPKDTLMISRTPEVTCVVVDVSHEDPEVKFNWYVDGVEVHNAKTKPREEQYNSTYRVVSVLTVLHQDWLNGKEYKCKVSNKALPAPIEKTISKAKGQPREPQVYTLPPSRDESGYWVSLTCLVKGFYPSDIVVEWESNGEPQYWAKTTPPVLDSDGSFFLYSKLTVSNWRWQMDDFSCSVMHEALHNHYTQKSLSLSPGK
[1]
  DO11.10 T cell activity assay EC50: 0.28 nM
[2]
  DO11.10 T cell activation assay EC50: 0.28 nM

B2: Fcab FS17-33-116 (designed binder)
chain: B1 chain with A10L, A11L
[3]
  EC50: 9.5 nM
[4]
  Kd: 0.665 nM
[5]
  Kd: 1.68 nM
[6]
  binding result: no binding
[7]
  EC50: 8.4 nM
[8]
  Kd: 0.49 nM
  koff: 0.00044 s⁻¹
  kon: 1.5e+06 M⁻¹ s⁻¹
[9]
  Kd: 0.33 nM
[10]
  Kd: 0.42 nM
[11]
  binding result: no binding
[12]
  Kd: ~2000 nM

B3: FS17-33-116/4420 mAb^2 (bispecific antibody, human IgG1, kappa, L234A L235A, V domains shown)
VH: EVKLDETGGGLVQPGRPMKLSCVASGFTFSDYWMNWVRQSPEKGLEWVAQIRNKPYNYETYYSDSVKGRFTISRDDSKSSVYLQMNNLRVEDMGIYYCTGSYYGMDYWGQGTSVTVSS
VL: DVVMTQTPLSLPVSLGDQASISCRSSQSLVHSNGNTYLRWYLQKPGQSPKVLIYKVSNRFSGVPDRFSGSGSGTDFTLKISRVEAEDLGVYFCSQSTHVPWTFGGGTKLEIKR
[13]
  DO11.10 T cell activation assay EC50: < 1 nM

B4: FS17-33-449AA/MSL109 mock mAb^2 (bispecific antibody, human IgG1, kappa, L234A L235A)
heavy: EEQVLESGGGLVKPGGSLRLSCAASGFTFSPYSVFWVRQAPGKGLEWVSSINSDSTYKYYADSVKGRFTISRDNAENSIFLQMNSLRAEDTAVYYCARDRSYYAFSSGSLSDYYYGLDVWGQGTTVIVSSASTKGPSVFPLAPSSKSTSGGTAALGCLVKDYFPEPVTVSWNSGALTSGVHTFPAVLQSSGLYSLSSVVTVPSSSLGTQTYICNVNHKPSNTKVDKKVEPKSCDKTHTCPPCPAPEAAGGPSVFLFPPKPKDTLMISRTPEVTCVVVDVSHEDPEVKFNWYVDGVEVHNAKTKPREEQYNSTYRVVSVLTVLHQDWLNGKEYKCKVSNKALPAPIEKTISKAKGQPREPQVYTLPPSRDETGYWVSLTCLVKGFYPSDIAVEWESNGEPQYWAKTTPPVLDSDGSFFLYSKLTVSNWRWQLDDVFSCSVMHEALHNHYTQKSLSLSPGK
light: DIVMTQSPLSLSVTPGEPASISCRSSQSLLHTNGYNYLDWYVQKPGQSPQLLIYLASNRASGVPDRFSGSGSGTDFTLKISRVETEDVGVYYCMQALQIPRTFGQGTKVEIKRTVAAPSVFIFPPSDEQLKSGTASVVCLLNNFYPREAKVQWKVDNALQSGNSQESVTEQDSKDSTYSLSSTLTLSKADYEKHKVYACEVTHQGLSSPVTKSFNRGEC
[3]
  EC50: 1.96 nM
[4]
  Kd: 3.6 nM
[5]
  Kd: 7.88 nM
[14]
  Kd: 0.38 nM
[15]
  Kd: 0.6 nM
[16]
  EC50: 194 nM

B5: FS17-33-548AA/MSL109 (bispecific antibody, human IgG1, kappa, L234A L235A)
heavy: B4 heavy with T371E, D432G
light: B4 light
[17]
  EC50: 43.2 nM
[18]
  DO11.10 EC50: 8.51 nM
[19]
  Kd: 0.6 nM
[20]
  Kd: 0.45 nM
[21]
  EC50: 130 nM
[22]
  EC50: 2.1 nM
[23]
  EC50: 1.5 nM
[24]
  DO11.10 EC50: 7.59 nM
[25]
  Kd: 0.43 nM
  koff: 0.000437 s⁻¹

B6: FS17-33-451AA/MSL109 mock mAb^2 (bispecific antibody, human IgG1, kappa, L234A L235A)
heavy: B4 heavy with T371E
light: B4 light
notes: also called FS17-33-451AA/MSL109 (parent 2)
[3]
  EC50: 0.92 nM
[4]
  Kd: 4.52 nM
[5]
  Kd: 11.7 nM
[18]
  DO11.10 EC50: 4.83 nM
[14]
  Kd: 0.34 nM
[15]
  Kd: 0.5 nM
[16]
  EC50: 190 nM
[24]
  DO11.10 EC50: 8.28 nM
[25]
  Kd: 0.3 nM
  koff: 0.000329 s⁻¹

B7: FS17-33-539AA/MSL109 (bispecific antibody, human IgG1, kappa, L234A L235A)
heavy: B4 heavy with D432G, H445R
light: B4 light
[17]
  EC50: 49.7 nM
[18]
  DO11.10 EC50: 3.14 nM
[19]
  Kd: 0.9 nM
[20]
  Kd: 0.95 nM
[21]
  EC50: 119 nM
[22]
  EC50: 10 nM
[23]
  EC50: 4.8 nM
[24]
  DO11.10 EC50: 2.91 nM
[25]
  Kd: 0.39 nM
  koff: 0.000427 s⁻¹
